# Results from patent US20180245061A1, “Modified Heterocyclase” (THE UNIVERSITY COURT OF THE UNIVERSITY OF ABERDEEN, priority 2014, published 2018).
# T1: PatE' (precursor peptide PatE variant, 64 amino acids, full leader, single core peptide ITACITFC, C-terminal …)
# T1 peptide: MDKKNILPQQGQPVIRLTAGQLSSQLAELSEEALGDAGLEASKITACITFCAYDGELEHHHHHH
# T2: PatE' E31R
# T2 construct: Point mutant of PatE'
# T2 peptide: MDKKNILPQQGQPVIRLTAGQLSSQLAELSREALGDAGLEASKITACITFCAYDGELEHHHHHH
# B1: MicD-Q21-5G: fused-MicD: leader from Q21, 5 GA repeats linker, KL, MicD (SEQ ID NO: 40) (protein)
# chain: MSHHHHHHDYDENLYFQGSQLSSQLAELSEEALGDAGAGAGAGAGAKLMQSTPLLQIQPHFHVEVIEPKQVYLLGEQANYALTGQLYCQILPLLDGQHSREQIVEKLDGEVPSEYIDYVLDRLAEKGYLTEAAPELSSEVAAFWSELGIAPPVAAEALRQSVTLTPVGNISEVTVAALTTALRDIGISVQTPTEAGSPTALNVVLTDDYLQPELAKINKQALESQQTWLLVKPVGSVLWLGPVFVPGKTGCWDCLAHRLRGNREVEASVLQQKQAQQQRNGQSGSVIGCLPTARATLPSTLQTGLQFAATEIAKWIVKHHVKATAPGTVFFPTLDGKIITFNHTVIDLKSHVLVRRSQCPSCGDRQILHRQGFEPVKLVSRRKHFTHDGGHRAFTPEQTVQKYQHLVSPITGVVTELVRLTDPANPLVHTYKAGHAFGSATTLRGLRNTLKYKSSGKGKTDIQSRASGLCEAIERYSGIFQGDEPRKRATLAELGDLALHPESLLYFSNTQYANREELNAQGSAAAYRWIPNRFDVSQAIDWTPVWSLTEQKHKYVPTAFCYYGYPLPEEQRFCKADSNGNAAGNTLEEAILQGFLELVERDSIAMWWYNRIRRPAVDLSTFDEPYFVDLQQFYQQQNRELWVLDVTADLGIPAFAGFSRRTVGTSERISIGFGAHLDPTIAILRALTEVSQVGLELDKIPDDKLDGESKDWMLNVTVENHPWLAPDPSVPMKTASDYPKRWSDDIHTDVMNCVKTAQTAGLEVMVLDQTRPDIGLNVVKVIIPGMRTFWTRFGQGRLYDIPVKLGWLDAPLAEEELNQTNIPF
# modifications: Modified heterocyclase MicroD_Q21_5GA
# B2: LynD R74E (enzyme)
# chain: MQSTPLLQIQPHFHVEVIEPKQVYLLGEQANHALTGQLYCQILPLLNGQYTLEQIVEKLDGEVPPEYIDYVLEELAEKGYLTEAAPELSSEVAAFWSELGIAPPVAAEALRQPVTLTPVGNISEVTVAALTTALRDIGISVQTPTEAGSPTALNVVLTDDYLQPELAKINKQALESQQTWLLVKPVGSVLWLGPVFVPGKTGCWDCLAHRLRGNREVEASVLRQKQAQQQRNGQSGSVIGCLPTARATLPSTLQTGLQFAATEIAKWIVKYHVNATAPGTVFFPTLDGKIITLNHSILDLKSHILIKRSQCPTCGDPKILQHRGFEPLKLESRPKQFTSDGGHRGTTPEQTVQKYQHLISPVTGVVTELVRITDPANPLVHTYRAGHSFGSATSLRGLRNTLKHKSSGKGKTDSQSKASGLCEAVERYSGIFQGDEPRKRATLAELGDLAIHPEQCLCFSDGQYANRETLNEQATVAHDWIPQRFDASQAIEWTPVWSLTEQTHKYLPTALCYYHYPLPPEHRFARGDSNGNAAGNTLEEAILQGFMELVERDGVALWWYNRLRRPAVDLGSFNEPYFVQLQQFYRENDRDLWVLDLTADLGIPAFAGVSNRKTGSSERLILGFGAHLDPTIAILRAVTEVNQIGLELDKVPDENLKSDATDWLITEKLADHPYLLPDTTQPLKTAQDYPKRWSDDIYTDVMTCVNIAQQAGLETLVIDQTRPDIGLNVVKVTVPGMRHFWSRFGEGRLYDVPVKLGWLDEPLTEAQMNPTPMPF
# notes: Point mutant of LynD
# B3: LynD: full-length cyanobactin heterocyclase LynD (Lyngbya sp. PCC 8106), SEQ ID NO: 1 (protein)
# chain: MQSTPLLQIQPHFHVEVIEPKQVYLLGEQANHALTGQLYCQILPLLNGQYTLEQIVEKLDGEVPPEYIDYVLERLAEKGYLTEAAPELSSEVAAFWSELGIAPPVAAEALRQPVTLTPVGNISEVTVAALTTALRDIGISVQTPTEAGSPTALNVVLTDDYLQPELAKINKQALESQQTWLLVKPVGSVLWLGPVFVPGKTGCWDCLAHRLRGNREVEASVLRQKQAQQQRNGQSGSVIGCLPTARATLPSTLQTGLQFAATEIAKWIVKYHVNATAPGTVFFPTLDGKIITLNHSILDLKSHILIKRSQCPTCGDPKILQHRGFEPLKLESRPKQFTSDGGHRGTTPEQTVQKYQHLISPVTGVVTELVRITDPANPLVHTYRAGHSFGSATSLRGLRNTLKHKSSGKGKTDSQSKASGLCEAVERYSGIFQGDEPRKRATLAELGDLAIHPEQCLCFSDGQYANRETLNEQATVAHDWIPQRFDASQAIEWTPVWSLTEQTHKYLPTALCYYHYPLPPEHRFARGDSNGNAAGNTLEEAILQGFMELVERDGVALWWYNRLRRPAVDLGSFNEPYFVQLQQFYRENDRDLWVLDLTADLGIPAFAGVSNRKTGSSERLILGFGAHLDPTIAILRAVTEVNQIGLELDKVPDENLKSDATDWLITEKLADHPYLLPDTTQPLKTAQDYPKRWSDDIYTDVMTCVNIAQQAGLETLVIDQTRPDIGLNVVKVTVPGMRHFWSRFGEGRLYDVPVKLGWLDEPLTEAQMNPTPMPF
# modifications: Lyngbya sp. PCC 8106
# Key:
# full-length PatE = test: Heterocyclization of full length PatE substrate (core sequence ITVCISVC), MALDI-TOF-MS; assay type: biochemical; conditions: MALDI-TOF-MS (FIG. 9)
# Text: Reaction Zoomed view with reaction products identified. The mass of the starting material is 6983.8 Da.
# PatE′ [1] = test: Heterocyclization reaction with PatE′, MS analysis; assay type: biochemical; conditions: 5 mM ATP, 5 mM MgCl2, 16 h at 37° C.; for No. of heterocycles, peptide PatE′: 2 μM enzyme, TABLE 2
# Procedure: (§1) For all heterocyclization reactions, […] PatE′ (and variants,) was incubated with 2 μM enzyme in 150 mM NaCl, 10 mM HEPES pH 7.4, 1 mM TCEP, 5 mM ATP and 5 mM MgCl2 for 16 h at 37° C. Samples were analyzed by ESI or MALDI MS (LCT, Micromass or 4800 MALDI TOF/TOF Analyzer, ABSciex). For cis trans activation studies, 100 μM ITACITFCAYDG synthetic test peptide (Peptide Protein Research Ltd) was reacted with 5 μM heterocyclase enzyme in the presence and absence of 5.5 μM LAELSEEAL synthetic peptide, or 5.5 μM full-length PatE′4 leader peptide. The reaction was carried out in 150 mM NaCl, 10 mM HEPES pH 7.4, 1 mM TCEP, 5 mM ATP and 5 mM MgCl2 for 16 h at 37° C. and analyzed as above. Synthetic peptides were purchased from Peptide Protein Research Ltd.
# PatE′ E31R = test: ITC substrate peptide binding: PatE′ E31R; conditions: 10 μM enzyme, 150 μM peptide, 20° C.
# Procedure: (§2) ITC experiments were performed using a VP-ITC instrument (MicroCal) in heterocyclization reaction buffer (150 mM NaCl, 10 mM HEPES pH7.4, 1 mM TCEP) supplemented with 5 mM MgCl2. For substrate binding experiments a cell solution of 10 μM LynD (and mutants) and a syringe solution of 150 μM PatE′ (and mutants) was prepared by diluting protein and peptide with the buffer used for dialysis. For nucleotide binding experiments, the cell concentration was increased to 20 μM, and the ATP/AMP concentration in the syringe solution was 300 μM. Substrate, and ATP experiments were performed at 20° C., and AMP experiments at 25° C. Cell and syringe solutions were degassed for 15 min at 18 and 23° C. Titration method was as follows: one injection of 2 μl followed by injections of 5 μl at 0.5 μl/min, with a delay of 4 min between every injection. The stirring speed was 307 rpm throughout. Raw data was processed using MicroCal Origin software, and the baseline was adjusted and the integrations limits were selected manually. Data was non-linearly fitted to the one-site model (Origin) setting the stoichiometry to 1.
# [2] = molecular target: T1, PatE' (precursor peptide PatE variant, …); test: ITC, 20 C
# PatE' E31R = molecular target: T2, PatE' E31R; test: ITC, 20 C
# PatE′ [3] = test: ITC substrate peptide binding: PatE′; conditions: 10 μM enzyme, 150 μM peptide, 20° C.
# Procedure: as §2
# PatE′ L26R [4] = test: Heterocyclization reaction with PatE′ L26R; assay type: biochemical; conditions: 2 μM enzyme, 5 mM ATP, 5 mM MgCl2, 16 h at 37° C.
# PatE′ L26R, sequence (as listed by the source, stated change not applied): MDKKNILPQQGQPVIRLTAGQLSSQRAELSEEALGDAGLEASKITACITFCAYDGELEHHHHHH
# Procedure: as §1
# PatE′ E32R = test: Heterocyclization reaction with PatE′ E32R; assay type: biochemical; conditions: 2 μM enzyme, 5 mM ATP, 5 mM MgCl2, 16 h at 37° C.
# PatE′ E32R, sequence (as listed by the source, stated change not applied): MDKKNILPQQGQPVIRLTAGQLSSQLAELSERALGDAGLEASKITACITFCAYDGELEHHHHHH
# Procedure: as §1
# PatE′ L26R [5] = test: ITC substrate peptide binding: PatE′ L26R; conditions: 10 μM enzyme, 150 μM peptide, 20° C.
# Procedure: as §2
# PatE′ L29R = test: ITC substrate peptide binding: PatE′ L29R; conditions: 10 μM enzyme, 150 μM peptide, 20° C.
# PatE′ L29R, sequence (as listed by the source, stated change not applied, one chain of several): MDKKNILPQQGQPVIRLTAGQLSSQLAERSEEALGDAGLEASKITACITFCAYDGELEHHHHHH
# Procedure: as §2
molecule,measurement,setting,value
B1,heterocyclization of full-length PatE,full-length PatE,inefficiently and produce a mixture of different heterocyclic species
B2,"No. of heterocycles, peptide PatE′",PatE′ [1],2
same,"KD (μM), peptide PatE′ E31R",PatE′ E31R,no binding
same,binding result,[2],no binding
same,binding result,PatE' E31R,no binding
same,"KD (μM), peptide PatE′",PatE′ [3],no binding
B3,"No. of heterocycles, peptide PatE′",PatE′ [1],2
same,No. of heterocycles (PatE′),"PatE′ [1]; PatE′ with 2 μM enzyme, TABLE 1",2
same,"No. of heterocycles, peptide PatE′ L26R",PatE′ L26R [4],2
same,"No. of heterocycles, peptide PatE′ E32R",PatE′ E32R,2
same,"KD (μM), peptide PatE′ E31R",PatE′ E31R,no binding
same,"KD (μM), peptide PatE′ L26R",PatE′ L26R [5],no binding
same,"KD (μM), peptide PatE′ L29R",PatE′ L29R,no binding
